According to article PMC2494995, “The central proline rich region of POB1/REPS2 plays a regulatory role in epidermal growth factor receptor endocytosis by binding to 14-3-3 and SH3 domain-containing proteins” (BMC Biochemistry, 2008):

What was measured:
[1] = biological target: POB1 phospho-peptide 347KTHSRASpSLDLNKVF361 (human); experiment: peptide or protein array; SPOT peptides on a cellulose membrane; GST fusion proteins (10 micrograms/ml) in PBS/BSA 5%; anti-GST antibody, peroxidase labeled secondary antibody, chemiluminescence in arbitrary units
14-3-3 sigma = 14-3-3 sigma (UniProt P31947); experiment: SPOT peptide array, GST-14-3-3 sigma overlay
[2] = biological target: T1, GST-SH3 of Amphiphysin II (UniProt O00499 520-593); experiment: pull-down; GST or GST fusion proteins (100 μg) adsorbed to glutathione-sepharose 4B beads, two hours at 4°C with 1 mg of HEK293 cellular extract in JS lysis buffer (50 mM Hepes, 150 mM NaCl, 1% Triton-X100); washed three times in ice-cold PBS; Western blot
T1 construct: Amphiphysin II, SH3 domain; cloned into the SalI and BglII sites of pYEX (modified pGEX-2TK); also called AmphIISH3; GST-Amphiphysin II SH3; source: expressed in bacteria; on glutathione-Sepharose 4B beads (pull-down) or purified (peptide arrays)
T1 sequence (looked up): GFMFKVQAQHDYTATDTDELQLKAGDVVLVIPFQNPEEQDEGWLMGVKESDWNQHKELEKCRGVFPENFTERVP

[3] = biological target: GST-SH3 carboxy-terminal of Grb2; experiment: as above
[4] = biological target: POB1 fifteenmer peptide 338-352 with Pro343 replaced by alanine (human); experiment: peptide or protein array; SPOT peptides on a cellulose membrane; GST fusion proteins (10 micrograms/ml) in PBS/BSA 5%; anti-GST antibody, peroxidase labeled secondary antibody, chemiluminescence in arbitrary units
[5] = biological target: POB1 fifteenmer peptide 338-352 with Pro345 replaced by alanine (human); experiment: as above
[6] = biological target: POB1 fifteenmer peptide 338-352 with proline 339 replaced by alanine (human); experiment: as above
[7] = biological target: T1, GST-SH3 of Amphiphysin II; experiment: as above; details: both partners purified

GST-14-3-3 sigma (from UniProt P31947 1-248) (natural protein)
signal intensity (arbitrary units (a.u.)) [1]: 8500

POB1/REPS2 15-mer centred on Ser322 (from UniProt Q8NFH8) pS322 peptide (No. 196)
other: spot intensity (14-3-3 sigma; reference: unphosphorylated peptide (No. 232), sites S322): none in both; reference 1400

Myc-tagged POB1 (full length) (natural protein)
percent of the input bound [2]: 25%
percent of the input bound [3]: 4%

POB1/REPS2 347-361 (from UniProt Q8NFH8) pS354 peptide
other: spot intensity (14-3-3 sigma; reference: unphosphorylated peptide (No. 238), sites S354): gained; reference 991

GST-SH3 carboxy-terminal of Grb2 (domain or fragment)
percent of the binding to the unmutated peptide [4]: 30%
percent of the binding to the unmutated peptide [5]: 30%

B1: GST-SH3 of Amphiphysin II (domain or fragment)
chain: GFMFKVQAQHDYTATDTDELQLKAGDVVLVIPFQNPEEQDEGWLMGVKESDWNQHKELEKCRGVFPENFTERVP
percent of the binding to the unmutated peptide [6]: 31%

B2: POB1 fifteenmer peptide 338PPTPPPRPQKTHSRA352 (peptide)
peptide: PPTPPPRPQKTHSRA
notes: numbers count on: isoform 2, Q8NFH8-2; source: SPOT synthesis on a cellulose membrane
binding result [7]: binds
